US20250074971A1

Legend:
[1] = molecular target: Senecavirus A (SVA) particles (Senecavirus A); assay: ELISA, coated SVA, Fc control
[2] = molecular target: Foot-and-Mouth Disease Virus (FMDV) particles (Foot-and-Mouth Disease Virus); assay: ELISA, coated FMDV, Fc control

Work on Fc yielded an A450 [1] of 0.218 A450 and an A450 [2] of 0.054 A450.
